{
  "source": "patent US20100041596A1",
  "binders": {"B1": {"name": "p60 TNFR, full-length, P19438 30-455 (receptor)", "chain": "LVPHLGDREKRDSVCPQGKYIHPQNNSICCTKCHKGTYLYNDCPGPGQDTDCRECESGSFTASENHLRHCLSCSKCRKEMGQVEISSCTVDRDTVCGCRKNQYRHYWSENLFQCFNCSLCLNGTVHLSCQEKQNTVCTCHAGFFLRENECVSCSNCKKSLECTKLCLPQIENVKGTEDSGTTVLLPLVIFFGLCLLSLLFIGLMYRYQRWKSKLYSIVCGKSTPEKEGELEGTTTKPLAPNPSFSPTPGFTPTLGFSPVPSSTFTSSSTYTPGDCPNFAAPRREVAPPYQGADPILATALASDPIPNPLQKWEDSAHKPQSLDTDDPATLYAVVENVPPLRWKEFVRRLGLSDHEIDRLELQNGRCLREAQYSMLATWRRRTPRREATLELLGRVLRDMDLLGCLEDIEEALCGPAALPPAPSLLR"}, "B2": {"name": "Fas fusion proteins with the death domain (CFP and YFP), P25445 26-335 (receptor, not shown: large carriers)", "chain": "QVTDINSKGLELRKTVTTVETQNLEGLHHDGQFCHKPCPPGERKARDCTVNGDEPDCVPCQEGKEYTDKAHFSSKCRRCRLCDEGHGLEVEINCTRTQNTKCRCKPNFFCNSTVCEHCDPCTKCEHGIIKECTLTSNTKCKEEGSRSNLGWLCLLLLPIPLIVWVKRKEVQKTCRKHRKENQGSHESPTLNPETVAINLSDVDLSKYITTIAGVMTLSQVKGFVRKNGVNEAKIDEIKNDNVQDTAEQKVQLLRNWHQLHGKKEAYDTLIKDLKKANLCTLAEKIQTIILKDITSDSENSNFRNEIQSLV"}, "B3": {"name": "native Fas receptor of H9 lymphoma cells, P25445 26-335 (receptor)", "chain": "B2 chain"}},
  "conditions_in_all_cases": "remark: other sources report otherwise",
  "key": {"[1]": {"target": "T1, p60 TNFR, full-length (Homo sapiens (Human)), P19438", "T1 chain": "B1 chain", "assay": "DTSSP crosslinking of H9 cells with or without TNFα, non-reducing gel, anti-p60 blot"}, "[2]": {"target": "T2, Fas fusion proteins with the death domain (CFP and YFP) (Homo sapiens (Human)), P25445", "T2 chain": "B2 chain", "assay": "CFP dequenching after YFP photobleaching, microscope"}, "[3]": {"target": "T3, native Fas receptor of H9 lymphoma cells (Homo sapiens (Human)), P25445", "T3 chain": "B2 chain", "assay": "DTSSP crosslinking of H9 cells, deglycosylated lysates, anti-Fas blot"}},
  "data": [
    {"binder": "B1", "values": [
      {"measurement": "percent of chains cross-linked as apparent trimers and higher order complexes", "setting": "[1]", "result": "15 to 20", "unit": "%"}
    ]},
    {"binder": "B2", "values": [
      {"measurement": "FRET efficiency (E%)", "setting": "[2]", "result": 27, "unit": "%"}
    ]},
    {"binder": "B3", "values": [
      {"measurement": "percent of chains cross-linked as trimers (densitometry)", "setting": "[3]", "result": 60, "unit": "%"}
    ]}
  ]
}
